Source: patent publication US20230035659A1, “Compositions and Methods for TTR Gene Editing and Treating ATTR Amyloidosis Comprising a Corticosteroid or Use Thereof” (Intellia Therapeutics, Inc., priority 2019, published 2023)
Strand notation (5' to 3'): a small letter for the sugar, then the base; units joined by * are phosphorothioate-linked, units joined directly phosphodiester-linked; [ ] holds rarer units or linkages, { } end groups; capitals alone tell only the bases. m = 2'-O-methyl; r = 2'-OH (RNA)

B1: G000480: TTR sgRNA modified sequence, Human, SEQ ID NO: 87; guide sequence of CR003353 (nucleic acid)
guide: mA*mA*mA*rGrGrCrUrGrCrUrGrArUrGrArCrArCrCrUrGrUrUrUrUrArGrAmGmCmUmAmGmAmAmAmUmAmGmCrArArGrUrUrArArArArUrArArGrGrCrUrArGrUrCrCrGrUrUrArUrCrAmAmCmUmUmGmAmAmAmAmAmGmUmGmGmCmAmCmCmGmAmGmUmCmGmGmUmGmCmU*mU*mU*mU
B2: G000482: TTR sgRNA modified sequence, Human, SEQ ID NO: 89; guide sequence of CR003365 (nucleic acid)
guide: mU*mG*mU*rArGrArArGrGrGrArUrArUrArCrArArArGrGrUrUrUrUrArGrAmGmCmUmAmGmAmAmAmUmAmGmCrArArGrUrUrArArArArUrArArGrGrCrUrArGrUrCrCrGrUrUrArUrCrAmAmCmUmUmGmAmAmAmAmAmGmUmGmGmCmAmCmCmGmAmGmUmCmGmGmUmGmCmU*mU*mU*mU
B3: G000567: TTR sgRNA modified sequence, Human, SEQ ID NO: 109; guide sequence of CR003352 (nucleic acid)
guide: mG*mA*mA*rArGrGrCrUrGrCrUrGrArUrGrArCrArCrCrGrUrUrUrUrArGrAmGmCmUmAmGmAmAmAmUmAmGmCrArArGrUrUrArArArArUrArArGrGrCrUrArGrUrCrCrGrUrUrArUrCrAmAmCmUmUmGmAmAmAmAmAmGmUmGmGmCmAmCmCmGmAmGmUmCmGmGmUmGmCmU*mU*mU*mU
B4: G000490: TTR sgRNA modified sequence, Human, SEQ ID NO: 97; guide sequence of CR003366 (nucleic acid)
guide: mA*mA*mA*rUrArGrArCrArCrCrArArArUrCrUrUrArCrGrUrUrUrUrArGrAmGmCmUmAmGmAmAmAmUmAmGmCrArArGrUrUrArArArArUrArArGrGrCrUrArGrUrCrCrGrUrUrArUrCrAmAmCmUmUmGmAmAmAmAmAmGmUmGmGmCmAmCmCmGmAmGmUmCmGmGmUmGmCmU*mU*mU*mU
B5: G000486: TTR sgRNA modified sequence, Human, SEQ ID NO: 93; guide sequence of CR003339 (nucleic acid)
guide: mA*mC*mA*rCrArArArUrArCrCrArGrUrCrCrArGrCrArGrUrUrUrUrArGrAmGmCmUmAmGmAmAmAmUmAmGmCrArArGrUrUrArArArArUrArArGrGrCrUrArGrUrCrCrGrUrUrArUrCrAmAmCmUmUmGmAmAmAmAmAmGmUmGmGmCmAmCmCmGmAmGmUmCmGmGmUmGmCmU*mU*mU*mU
B6: G000502: TTR Cyno specific sgRNA modified sequence, SEQ ID NO: 114; guide sequence of CR000689; cross homologous between mouse and cyno (nucleic acid)
guide: mA*mC*mA*rCrArArArUrArCrCrArGrUrCrCrArGrCrGrGrUrUrUrUrArGrAmGmCmUmAmGmAmAmAmUmAmGmCrArArGrUrUrArArArArUrArArGrGrCrUrArGrUrCrCrGrUrUrArUrCrAmAmCmUmUmGmAmAmAmAmAmGmUmGmGmCmAmCmCmGmAmGmUmCmGmGmUmGmCmU*mU*mU*mU
B7: G000484: TTR sgRNA modified sequence, Human, SEQ ID NO: 91; guide sequence of CR003367 (nucleic acid)
guide: mA*mG*mA*rCrArCrCrArArArUrCrUrUrArCrUrGrGrArGrUrUrUrUrArGrAmGmCmUmAmGmAmAmAmUmAmGmCrArArGrUrUrArArArArUrArArGrGrCrUrArGrUrCrCrGrUrUrArUrCrAmAmCmUmUmGmAmAmAmAmAmGmUmGmGmCmAmCmCmGmAmGmUmCmGmGmUmGmCmU*mU*mU*mU
B8: G000489: TTR sgRNA modified sequence, Human, SEQ ID NO: 96; guide sequence of CR003344 (nucleic acid)
guide: mU*mU*mU*rGrArCrCrArUrCrArGrArGrGrArCrArCrUrGrUrUrUrUrArGrAmGmCmUmAmGmAmAmAmUmAmGmCrArArGrUrUrArArArArUrArArGrGrCrUrArGrUrCrCrGrUrUrArUrCrAmAmCmUmUmGmAmAmAmAmAmGmUmGmGmCmAmCmCmGmAmGmUmCmGmGmUmGmCmU*mU*mU*mU
B9: G000570: TTR sgRNA modified sequence, Human, SEQ ID NO: 111; guide sequence of CR003347 (nucleic acid)
guide: mC*mA*mU*rUrGrArUrGrGrCrArGrGrArCrUrGrCrCrUrGrUrUrUrUrArGrAmGmCmUmAmGmAmAmAmUmAmGmCrArArGrUrUrArArArArUrArArGrGrCrUrArGrUrCrCrGrUrUrArUrCrAmAmCmUmUmGmAmAmAmAmAmGmUmGmGmCmAmCmCmGmAmGmUmCmGmGmUmGmCmU*mU*mU*mU
B10: G000488: TTR sgRNA modified sequence, Human, SEQ ID NO: 95; guide sequence of CR003346 (nucleic acid)
guide: mA*mA*mA*rGrUrUrCrUrArGrArUrGrCrUrGrUrCrCrGrGrUrUrUrUrArGrAmGmCmUmAmGmAmAmAmUmAmGmCrArArGrUrUrArArArArUrArArGrGrCrUrArGrUrCrCrGrUrUrArUrCrAmAmCmUmUmGmAmAmAmAmAmGmUmGmGmCmAmCmCmGmAmGmUmCmGmGmUmGmCmU*mU*mU*mU
B11: G000499: TTR sgRNA modified sequence, Human, SEQ ID NO: 106; guide sequence of CR005303 (nucleic acid)
guide: mU*mG*mA*rArUrCrCrArArGrUrGrUrCrCrUrCrUrGrArGrUrUrUrUrArGrAmGmCmUmAmGmAmAmAmUmAmGmCrArArGrUrUrArArArArUrArArGrGrCrUrArGrUrCrCrGrUrUrArUrCrAmAmCmUmUmGmAmAmAmAmAmGmUmGmGmCmAmCmCmGmAmGmUmCmGmGmUmGmCmU*mU*mU*mU
B12: G000483: TTR sgRNA modified sequence, Human, SEQ ID NO: 90; guide sequence of CR005298 (nucleic acid)
guide: mU*mC*mC*rArCrUrCrArUrUrCrUrUrGrGrCrArGrGrArGrUrUrUrUrArGrAmGmCmUmAmGmAmAmAmUmAmGmCrArArGrUrUrArArArArUrArArGrGrCrUrArGrUrCrCrGrUrUrArUrCrAmAmCmUmUmGmAmAmAmAmAmGmUmGmGmCmAmCmCmGmAmGmUmCmGmGmUmGmCmU*mU*mU*mU
B13: G000494: TTR sgRNA modified sequence, Human, SEQ ID NO: 101; guide sequence of CR003360 (nucleic acid)
guide: mG*mU*mG*rArGrUrCrUrGrGrArGrArGrCrUrGrCrArUrGrUrUrUrUrArGrAmGmCmUmAmGmAmAmAmUmAmGmCrArArGrUrUrArArArArUrArArGrGrCrUrArGrUrCrCrGrUrUrArUrCrAmAmCmUmUmGmAmAmAmAmAmGmUmGmGmCmAmCmCmGmAmGmUmCmGmGmUmGmCmU*mU*mU*mU

Tests used:
[1] = system: TTR; test: TTR editing dose response (EC50, maximum editing) in primary human hepatocytes treated with LNP formulated U-depleted Spy Cas9 mRNA and sgRNAs; type: cell-based
Experimental: (§1) Primary liver hepatocytes. Primary human liver hepatocytes (PHH) and primary cynomolgus liver hepatocytes (PCH) (Gibco) were cultured per the manufacturer's protocol (Invitrogen, protocol 11.28.2012). In brief, the cells were thawed and resuspended in hepatocyte thawing medium with supplements (Gibco, Cat. CM7000) followed by centrifugation at 100 g for 10 minutes for human and 80 g for 4 minutes for cyno. The supernatant was discarded and the pelleted cells resuspended in hepatocyte plating medium plus supplement pack (Invitrogen, Cat. A1217601 and CM3000). Cells were counted and plated on Bio-coat collagen I coated 96-well plates (ThermoFisher, Cat. 877272) at a density of 33,000 cells/well for human or 60,000 cells/well for cyno (or 65,000 cells/well when assaying effects on TTR protein, described further below). Plated cells were allowed to settle and adhere for 6 or 24 hours in a tissue culture incubator at 37° C. and 5% CO2 atmosphere. After incubation cells were checked for monolayer formation and media was replaced with hepatocyte culture medium with serum-free supplement pack (Invitrogen, Cat. A1217601 and CM4000).
(§2) For LNPs prepared using the cross-flow technique, the LNPs were formed by impinging jet mixing of the lipid in ethanol with two volumes of RNA solutions and one volume of water. The lipid in ethanol is mixed through a mixing cross with the two volumes of RNA solution. A fourth stream of water is mixed with the outlet stream of the cross through an inline tee. (See WO2016010840 FIG. 2.) The LNPs were held for 1 hour at room temperature, and further diluted with water (approximately 1:1 v/v). Diluted LNPs were concentrated using tangential flow filtration on a flat sheet cartridge (Sartorius, 100 kD MWCO) and then buffer exchanged by diafiltration into 50 mM Tris, 45 mM NaCl, 5% (w/v) sucrose, pH 7.5 (TSS). Alternatively, the final buffer exchange into TSS was completed with PD-10 desalting columns (GE). If required, formulations were concentrated by centrifugation with Amicon 100 kDa centrifugal filters (Millipore). The resulting mixture was then filtered using a 0.2 μm sterile filter. The final LNP was stored at 4° C. or −80° C. until further use.
(§3) Additional PCR was performed per the manufacturer's protocols (Illumina) to add chemistry for sequencing. The amplicons were sequenced on an Illumina MiSeq instrument. The reads were aligned to a reference genome (e.g., the human reference genome (hg38), the cynomologus reference genome (mf5), the rat reference genome (rn6), or the mouse reference genome (mm10)) after eliminating those having low quality scores. The resulting files containing the reads were mapped to the reference genome (BAM files), where reads that overlapped the target region of interest were selected and the number of wild type reads versus the number of reads which contain an insertion, substitution, or deletion was calculated.
(§4) The editing percentage (e.g., the “editing efficiency” or “percent editing” or “indel frequency”) is defined as the total number of sequence reads with insertions/deletions (“indels”) or substitutions over the total number of sequence reads, including wild type.
(§5) Lipid nanoparticle formulations of modified sgRNAs targeting human TTR and the cyno matched sgRNA sequences were tested on primary human hepatocytes and primary cyno hepatocytes in a dose response curve. Primary human and cyno hepatocytes were plated as described in Example 1. Both cell lines were incubated at 37° C., 5% CO2 for 24 hours prior to treatment with LNPs. The LNPs used in the experiments detailed in Tables 20-22 were prepared using the cross-flow procedure described above but purified using PD-10 columns (GE Healthcare Life Sciences) and concentrated using Amicon centrifugal filter units (Millipore Sigma), each containing the specified sgRNA and Cas9 mRNA (SEQ ID NO:1). […] LNPs were incubated in hepatocyte maintenance media containing 6% cyno serum at 37° C., 5% CO2 for 5 minutes. […]

[2] = system: potential off-target genomic sites; test: Off-target analysis by oligo insertion based assay in primary human hepatocytes (sgRNAs); type: cell-based; settings: 100 ng Cas9 mRNA, 25 nM sgRNA, 12.5 nM donor oligo, 48 h
Experimental: Off-target analysis of sgRNAs targeting TTR was performed in primary human hepatocytes (PHH) as described in Example 5, with the following modifications. PHH were plated at a density of 33,000 cells per well on collagen-coated 96-well plates as described in Example 1. Twenty-four hours post plating, cells were washed with media and transfected using Lipofectamine RNAiMAX (ThermoFisher, Cat. 13778150) as described in Example 1. Cells were transfected with a lipoplex containing 100 ng Cas9 mRNA, immediately followed by the addition of another lipoplex containing 25 nM of the sgRNA and 12.5 nM of the donor oligo (0.3 μL/well). Cells were lysed 48 hours post-transfection and gDNA was extracted and analyzed as further described in Example 5. The data is graphically represented in FIG. 20.
Fewer sites were detected in PHH for every guide tested as compared to the HekCas9 cell line, with no unique sites detected in PHH alone.

[3] = system: TTR; test: TTR editing dose response (EC50, maximum editing) in primary cyno hepatocytes treated with LNP formulated U-depleted Spy Cas9 mRNA and sgRNAs; type: cell-based, cynomolgus monkey
Experimental: as §1, §2, §3, §4, §5

[4] = LNP formulated U-depleted Spy Cas9 mRNA and human specific sgRNAs, dose response
[5] = LNP formulated U-depleted Spy Cas9 mRNA and human specific sgRNAs

Row | Molecule | Max Editing [1, 4] [%] | # Sites in PHH (off-target integration sites detected) [2] | Max Editing [3, 5] [%] | Max Editing ([1]; LNP with U-depleted Spy Cas9 mRNA and cyno specific sgRNA, 8 point 3-fold dose response starting at 300 ng mRNA, 72 hours) [%] | Max Editing ([3]; LNP formulated U-depleted Spy Cas9 mRNA and cyno specific sgRNAs) [%]
1 | B1 | 98.69 | 2 | 20.32 | – | –
2 | B2 | 97.02 | 2 | 97.47 | – | –
3 | B3 | – | 0 | 97.06 | – | –
4 | B4 | 94.16 | 0 | 90.76 | – | –
5 | B5 | – | 0 | – | – | –
6 | B6 | – | – | – | 91.5 | 100.05
7 | B7 | 94.14 | 0 | 0.22 | – | –
8 | B8 | 86.33 | 2 | 89.21 | – | –
9 | B9 | 98.22 | 1 | 96.73 | – | –
10 | B10 | 95.83 | 0 | 21.63 | – | –
11 | B11 | 96.31 | 1 | 74.94 | – | –
12 | B12 | 77.39 | 0 | 56.52 | – | –
13 | B13 | 75.70 | 0 | 60.84 | – | –
